Source: patent US20170281765A1 (SORRENTO THERAPEUTICS, published 2017)
Each block holds one binder with its values, some of them ahead of it.

Molecular target: T1, human PD-L1 expressed on the cell surface (human, UniProt Q9NZQ7 19-290)
T1 construct: whole, on cells; also called CHO-PD-L1
Experiment: flow cytometry on anti-CD3 activated human lymphocytes (CD19 negative gate), PE anti-human Ig detection
Procedure: This example provides a characterization of the disclosed anti-PD-L1 antibodies binding to human PD-L1 expressed on human lymphocytes. Human peripheral blood mononuclear cells were activated by culture with anti-CD3 for three days to promote expression of PD-L1. Binding was assessed by adding serial dilutions of the antibody to the activated lymphocytes. After washing, binding was detected by staining with a phycoerythrin labeled anti-human Ig reagent followed by analysis using a FACS Aria (Becton Dickinson, San Jose, Calif.). Since the anti-human Ig reagent reacts with immunoglobulin on B lymphocytes the cells were co-staining with an anti-human CD19 APC-Cy5 reagent.

T1 sequence (Q9NZQ7 19-290): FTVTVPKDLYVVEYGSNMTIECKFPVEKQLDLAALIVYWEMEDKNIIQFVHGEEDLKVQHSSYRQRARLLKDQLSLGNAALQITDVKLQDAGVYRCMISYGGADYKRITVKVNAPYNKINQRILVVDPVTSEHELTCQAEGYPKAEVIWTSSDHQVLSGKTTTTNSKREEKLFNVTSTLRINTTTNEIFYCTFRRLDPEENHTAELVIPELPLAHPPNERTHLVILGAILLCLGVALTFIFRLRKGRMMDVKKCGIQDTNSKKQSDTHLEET

EC50: ~0.1 nM
B1: anti-PD-L1 antibody H10 (antibody, V domains shown)
VH: EVQLVQSGGGLVQPGGSLRLSCAASGFTFSSYSMNWVRQAPGKGLEWVSYISSSSSTIYYADSVKGRFTISRDNAKNSLYLQMNSLRDEDTAVYYCARGDYYYGMDVWGQGTTVTVSS
VL: EIVLTQSPSSLSASIGDRVTLTCRASQSIRRFLNWYQQKPGKAPELLIYTASSLQSGVPSRFSGSGSGTDFTLTINSLQPEDFATYYCQQSYAVSPYTFGQGTKVEIR
notes: Fully human antibody of an IgG class

EC50: ~0.1 nM
B2: anti-PD-L1 antibody H6 (antibody, V domains shown)
VH: QMQLVQSGAEVKKPGSSVKVSCKASGGTFSSYAISWVRQAPGQGLEWMGGIIPIFGTANYAQKFQGRVTITADESTSTAYMELSSLRSEDTAVYYCARGNIVATITPLDYWGQGTLVTVSS
VL: SYELMQPPSVSVAPGKTATIACGGENIGRKTVHWYQQKPGQAPVLVIYYDSDRPSGIPERFSGSNSGNTATLTISRVEAGDEADYYCQVWDSSSDHRIFGGGTKLTVL
notes: as for B1
